Holding throughout (assay): protein binding radioassay
Experiment [1] concerns the target µ opioid receptor (MOR).
In experiment [2] the target is δ opioid receptor (DOR).
The target of experiment [3] is κ opioid receptor (KOR).

Bridges are numbered along the chain shown (N, C = ends). Where no end group is shown, it is not given here. [ ]: non-standard residue; d: D form. Some results are limits rather than exact numbers.

B1: DADLE-OL (peptide)
peptide: YASPKCFRY[dA]GF[dL]LACT
modifications: disulfide 6-16
In general, Kd refers to a measure of binding affinity in units of concentration. Read a low Kd as a tighter complex. With B1, the results for the Kd in experiment [1], in experiment [2] and in experiment [3] were 3540 nM, 64 nM and above 10000 nM, respectively.

B2: DADLE-OL II (peptide)
peptide: Y[dA]GF[dL]KCFRYPNGVLACT
modifications: disulfide 7-17
notes: 18 residues
For B2, the Kd in experiment [1] is 123 nM; in experiment [2], 275 nM; in experiment [3], 1080 nM.

Source of the values: US20250326791A1 (published 2025).
